Laboratory results taken from publication PMC3229523, “Identification of Lactoferricin B Intracellular Targets Using an Escherichia coli Proteome Chip” (PLoS ONE, 2011).
Ends that are not written are not given here. * marks the point of attachment. Biotin = O=C1N[C@H]2[C@H](CS[C@H]2CCCCC(=O)*)N1

How the values were obtained:
Assay in all cases: peptide or protein array; E. coli proteome chip: purified His-tagged proteins printed in duplicate on Fullmoon slides, blocked with 1% BSA; 10 nM N-terminal biotinylated LfcinB with 1% BSA, room temperature, 1 h; detected with DyLight 649-labeled streptavidin, ratio to DyLight 549-labeled anti-His antibody; ProCAT normalisation, local cut-off; triplicate chips
Conditions in all cases: both partners purified
YbaQ = target: T1, YbaQ (E. coli K-12, UniProt P0A9T6 1-113)
T1 construct: YbaQ, E. coli K-12
T1 sequence (looked up): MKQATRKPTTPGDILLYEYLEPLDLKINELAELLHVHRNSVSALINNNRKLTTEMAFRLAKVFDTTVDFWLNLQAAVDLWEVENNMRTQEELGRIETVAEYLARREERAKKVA

GloA = target: T2, GloA (E. coli K-12, UniProt P0AC81 1-135)
T2 construct: GloA, E. coli K-12
T2 sequence (looked up): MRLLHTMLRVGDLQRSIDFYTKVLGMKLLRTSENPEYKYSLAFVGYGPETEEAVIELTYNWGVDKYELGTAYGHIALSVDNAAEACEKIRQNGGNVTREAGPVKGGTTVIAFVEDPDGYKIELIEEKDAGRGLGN

HemK = target: T3, HemK (E. coli K-12, UniProt P0ACC1 1-277)
T3 construct: HemK, E. coli K-12
T3 sequence (looked up): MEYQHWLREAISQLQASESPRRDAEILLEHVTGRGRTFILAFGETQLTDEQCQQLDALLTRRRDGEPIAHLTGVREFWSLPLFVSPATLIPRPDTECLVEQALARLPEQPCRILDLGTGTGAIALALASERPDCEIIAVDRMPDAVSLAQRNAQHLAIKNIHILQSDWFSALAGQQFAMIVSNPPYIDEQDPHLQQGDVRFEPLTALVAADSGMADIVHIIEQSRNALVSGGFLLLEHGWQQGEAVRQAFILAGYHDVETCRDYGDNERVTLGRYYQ

SrmB = target: T4, SrmB (E. coli K-12, UniProt P21507 1-444)
T4 construct: SrmB, E. coli K-12
T4 sequence (looked up): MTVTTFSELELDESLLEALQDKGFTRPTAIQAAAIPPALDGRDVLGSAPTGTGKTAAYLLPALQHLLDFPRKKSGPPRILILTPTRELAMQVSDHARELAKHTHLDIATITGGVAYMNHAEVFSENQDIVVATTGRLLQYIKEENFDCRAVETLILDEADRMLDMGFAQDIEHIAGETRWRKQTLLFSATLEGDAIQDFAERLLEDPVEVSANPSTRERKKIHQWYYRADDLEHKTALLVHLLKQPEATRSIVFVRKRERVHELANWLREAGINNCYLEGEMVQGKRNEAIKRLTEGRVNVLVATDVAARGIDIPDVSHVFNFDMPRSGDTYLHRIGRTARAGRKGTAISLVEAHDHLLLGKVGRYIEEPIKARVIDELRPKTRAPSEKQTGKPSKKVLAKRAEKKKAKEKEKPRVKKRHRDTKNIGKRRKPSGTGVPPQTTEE

AtpH = target: T5, AtpH (E. coli K-12, UniProt P0ABA4 1-177)
T5 construct: AtpH, E. coli K-12
T5 sequence (P0ABA4 whole entry): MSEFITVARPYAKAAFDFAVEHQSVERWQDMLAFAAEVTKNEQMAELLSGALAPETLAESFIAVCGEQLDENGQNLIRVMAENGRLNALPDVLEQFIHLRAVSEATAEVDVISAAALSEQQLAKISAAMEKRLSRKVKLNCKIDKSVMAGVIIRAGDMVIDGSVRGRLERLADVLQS

HyaF = target: T6, HyaF (E. coli K-12, UniProt P19932 1-285)
T6 construct: HyaF, E. coli K-12
T6 sequence (looked up): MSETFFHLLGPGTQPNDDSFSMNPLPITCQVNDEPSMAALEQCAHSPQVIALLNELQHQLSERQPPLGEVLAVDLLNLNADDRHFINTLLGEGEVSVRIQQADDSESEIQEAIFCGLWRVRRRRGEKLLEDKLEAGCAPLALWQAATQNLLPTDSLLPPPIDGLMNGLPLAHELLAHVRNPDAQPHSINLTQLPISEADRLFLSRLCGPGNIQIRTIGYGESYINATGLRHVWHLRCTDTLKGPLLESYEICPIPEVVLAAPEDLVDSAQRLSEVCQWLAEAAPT

SoxS = target: T7, SoxS (E. coli K-12, UniProt P0A9E2 1-107)
T7 construct: SoxS, E. coli K-12
T7 sequence (looked up): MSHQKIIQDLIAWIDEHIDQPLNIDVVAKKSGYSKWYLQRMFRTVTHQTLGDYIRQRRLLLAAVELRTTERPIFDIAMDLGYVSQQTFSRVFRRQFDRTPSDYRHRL

Measured: binding result

B1: N-terminal biotinylated Lactoferricin B (peptide, UniProt P24627 36-60, looked up)
peptide: Biotin-FKCRRWQWRMKKLGAPSITCVRRAF
modifications: ends and bridges not checked
notes: lactoferricin B (LfcinB), cationic antimicrobial peptide of 25 amino acids; also called biotinylated LfcinB; biotin-labeled LfcinB; source: bought: Kelowna Inc
binds: all assays above
